Experimental findings from publication PMC13193388 (2025) are described below.

The target of the test is purified recombinant HIS epitope-tagged NOTCH3 extracellular domain (human, UniProt Q9UM47 40-1643, glycosylated). Briefly: SPR. On the technique in general: SPR reads the build-up and loss of mass on a sensor chip optically.
Sequence of purified recombinant HIS epitope-tagged NOTCH3 extracellular domain (Q9UM47 40-1643): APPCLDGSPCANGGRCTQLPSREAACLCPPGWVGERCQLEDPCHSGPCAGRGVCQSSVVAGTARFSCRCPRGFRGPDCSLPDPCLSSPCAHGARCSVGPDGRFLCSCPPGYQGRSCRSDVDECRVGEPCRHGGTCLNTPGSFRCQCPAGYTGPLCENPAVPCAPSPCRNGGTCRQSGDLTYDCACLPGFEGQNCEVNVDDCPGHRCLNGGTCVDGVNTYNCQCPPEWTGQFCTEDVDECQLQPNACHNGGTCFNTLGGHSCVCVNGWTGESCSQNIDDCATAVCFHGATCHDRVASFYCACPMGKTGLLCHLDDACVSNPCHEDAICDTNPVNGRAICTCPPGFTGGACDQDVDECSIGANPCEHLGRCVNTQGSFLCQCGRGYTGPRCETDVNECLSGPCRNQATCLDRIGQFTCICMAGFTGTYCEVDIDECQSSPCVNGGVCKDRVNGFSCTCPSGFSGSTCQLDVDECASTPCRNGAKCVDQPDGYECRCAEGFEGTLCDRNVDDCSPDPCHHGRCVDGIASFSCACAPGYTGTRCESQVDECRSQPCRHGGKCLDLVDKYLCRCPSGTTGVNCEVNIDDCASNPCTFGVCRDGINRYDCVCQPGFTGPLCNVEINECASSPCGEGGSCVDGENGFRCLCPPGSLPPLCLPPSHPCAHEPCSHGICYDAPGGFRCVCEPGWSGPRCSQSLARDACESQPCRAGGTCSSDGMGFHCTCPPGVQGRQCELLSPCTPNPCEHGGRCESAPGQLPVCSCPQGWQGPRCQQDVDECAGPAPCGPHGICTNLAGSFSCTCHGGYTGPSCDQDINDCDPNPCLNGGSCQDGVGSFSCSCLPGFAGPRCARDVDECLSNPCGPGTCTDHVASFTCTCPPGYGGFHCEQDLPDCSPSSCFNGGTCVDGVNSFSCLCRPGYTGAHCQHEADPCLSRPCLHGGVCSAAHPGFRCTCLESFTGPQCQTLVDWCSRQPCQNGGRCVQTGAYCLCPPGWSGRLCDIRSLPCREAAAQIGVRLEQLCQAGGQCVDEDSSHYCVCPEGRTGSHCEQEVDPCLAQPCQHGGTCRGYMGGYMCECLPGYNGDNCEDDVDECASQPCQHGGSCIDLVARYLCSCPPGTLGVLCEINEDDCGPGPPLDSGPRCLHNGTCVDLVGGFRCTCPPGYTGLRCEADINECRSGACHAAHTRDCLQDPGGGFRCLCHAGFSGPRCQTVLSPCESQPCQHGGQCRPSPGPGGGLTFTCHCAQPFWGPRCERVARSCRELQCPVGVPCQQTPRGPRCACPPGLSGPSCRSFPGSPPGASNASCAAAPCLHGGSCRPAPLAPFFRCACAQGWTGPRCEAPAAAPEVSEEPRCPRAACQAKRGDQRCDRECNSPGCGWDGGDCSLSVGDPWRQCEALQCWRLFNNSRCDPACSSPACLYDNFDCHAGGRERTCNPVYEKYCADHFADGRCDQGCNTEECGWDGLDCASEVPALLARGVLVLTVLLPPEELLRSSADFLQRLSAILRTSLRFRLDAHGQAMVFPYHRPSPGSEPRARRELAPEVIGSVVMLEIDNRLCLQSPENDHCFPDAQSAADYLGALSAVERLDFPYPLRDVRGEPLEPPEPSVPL

For EKYCADHFADGR [N34 peptide], the Kd (in general, a measure of binding affinity in units of concentration) worked out at 13.1 nM.
Next, EKYGGGHFADGR [control peptide (EKYGGGHFADGR)]: 1180 nM.
